Conditions in all cases: 5 mM UDP-glucose, phosphate buffer pH 7.5, 30 °C, 10 min
Substrate in data set [1]: O=c1c(O)c(-c2cc(O)c(O)c(O)c2)oc2cc(O)cc(O)c12
Briefly: purified protein.

Substrate in data set [2]: O=c1c(O)c(-c2ccc(O)c(O)c2)oc2cc(O)cc(O)c12
Briefly: glucosyltransferase assay of recombinant enzyme, HPLC. The class given is biochemical, Camellia sinensis.

Substrate in data set [3]: O=c1c(O)c(-c2ccc(O)cc2)oc2cc(O)cc(O)c12
Described as above. The class given is biochemical, Camellia sinensis.

B1: CsUGT72AM1 (Camellia sinensis) (protein)
chain: MDSSNSKPHVALLSSPGIGHLIPVLELRKRLVANHGFHVTVFSVTTTTAPPPKPKTATTTTTLDLVDIFELHVDISGLVNPNAPFVERVGVTMRESLPILRQAISGMDPRPTTLVVDIFGTDAMKIADEFDMSKYVFITTSAWVFAFCVFVPTLDEEVEGEYVDLQEPVKIPGCNPVRVEDLVDPMLDRRSQQYFEFLRTCKGYLSFDGVLVNTWEDLERPTLKAFRENGLLKQVLKAPIYPIGPLVKRVGSSGSRSELLEWLDLQPCQSVLYVSFGSAGTVSAKQITELAWGLELSQQRFIWVLRPPMEKGGPHDLNDCDDVANYLPDGFLSRTHKLGLVVPTWAPQEEILGHRSVGGFLSHGGWNSSLESILSGVPMIMWPLYAEQKMNAAMVVEELEVGVRVVQLSEVVEREEIAKFVRMVIEGREGKAMRTRVKELQCSGERALIENGSSYESMCELARDFEMKLKY
notes: cDNA in pMAL-c2X (MBP fusion), expressed in E. coli Novablue (DE3), purified
Regarding B1, the Km in data set [1] was determined as 113.15 µM; in data set [2] it was 94.99 µM; in data set [3] it was 71.81 µM.

As a reminder, the Km is the concentration of substrate that gives half-maximal velocity.
